From publication PMC3128127
Where “and” joins values, the source holds several entries; their conditions need not be identical. Equal values may be shown once.

What was measured:
[1] = biological target: HIV-1 GagPol, protease-inactive (D25A, PR-), from an expression plasmid (HIV-1); experiment: incorporation into virus-like particles (fluorescence microscopy of pelleted, filtered particles)
[2] = biological target: HIV-1 (NL4-3) GagPol, wild type, in authentic virions (HIV-1 (NL4-3)); experiment: incorporation into virions (quantitative fluorescence-based Western blot, LI-COR)

Sequence of DsRed-clathrin LC (P09496 whole entry): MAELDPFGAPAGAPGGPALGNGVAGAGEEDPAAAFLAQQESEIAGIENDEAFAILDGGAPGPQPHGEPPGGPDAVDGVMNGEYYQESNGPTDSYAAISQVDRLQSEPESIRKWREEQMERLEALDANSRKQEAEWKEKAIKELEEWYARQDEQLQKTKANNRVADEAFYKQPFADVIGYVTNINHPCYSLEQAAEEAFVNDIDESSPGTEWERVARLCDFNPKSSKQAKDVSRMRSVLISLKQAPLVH

Substance: DsRed-clathrin LC (from UniProt P09496 1-248) (natural protein)
- percent of VLPs labelled with DsRed-clathrin LC [1]: 40%

Substance: clathrin heavy chain (from UniProt Q00610 1-1675) (natural protein)
- percent of the total clathrin HC of the culture present in virions [2]: 6% and 8%
